Key:
Test in all cases: purified protein
purified protein [1] = substrate: O=C(O)[C@@H]1C[C@@H](O)CN1; format: biochemical, Streptosporangium roseum; details: 4HypE reaction (start from t4Hyp as in Figure 1), 50 mM Na-phosphate pH 8.0, 1 mM DTT, 25°C
purified protein [2] = substrate: O=C(O)[C@@H]1C[C@@H](O)CN1; format: biochemical, Shewanella loihica; details: 4HypE reaction (start from t4Hyp as in Figure 1), 50 mM Na-phosphate pH 8.0, 1 mM DTT, 25°C
purified protein [3] = substrate: O=C(O)[C@@H]1C[C@@H](O)CN1; format: biochemical, Paracoccus denitrificans; details: 4HypE reaction (start from t4Hyp as in Figure 1), 50 mM Na-phosphate pH 8.0, 1 mM DTT, 25°C
purified protein [4] = substrate: O=C(O)[C@@H]1C[C@@H](O)CN1; format: biochemical, Agrobacterium fabrum; details: 4HypE reaction (start from t4Hyp as in Figure 1), 50 mM Na-phosphate pH 8.0, 1 mM DTT, 25°C
purified protein [5] = substrate: O=C(O)[C@H]1NCC[C@@H]1O; format: biochemical, Agrobacterium fabrum; details: t3HypD (dehydration) reaction, 50 mM Na-phosphate pH 8.0, 1 mM DTT, 25°C
purified protein [6] = substrate: O=C(O)C1=NCCC1; details: 0.16 mM NADPH, 50 mM Tris-HCl pH 7.6, 25°C
purified protein [7] = substrate: O=C(O)[C@@H]1C[C@@H](O)CN1; format: biochemical, Roseibium aggregatum; details: 4HypE reaction (start from t4Hyp as in Figure 1), 50 mM Na-phosphate pH 8.0, 1 mM DTT, 25°C
purified protein [8] = substrate: O=C(O)[C@H]1NCC[C@@H]1O; details: t3HypD (dehydration) reaction, 50 mM Na-phosphate pH 8.0, 1 mM DTT, 25°C
purified protein [9] = substrate: O=C(O)[C@H]1NCC[C@@H]1O; format: biochemical, Burkholderia ambifaria; details: t3HypD (dehydration) reaction, 50 mM Na-phosphate pH 8.0, 1 mM DTT, 25°C
purified protein [10] = substrate: O=C(O)[C@H]1NCC[C@@H]1O; format: biochemical, Gillisella ampelina; details: t3HypD (dehydration) reaction, 50 mM Na-phosphate pH 8.0, 1 mM DTT, 25°C

B1: Sros_6004 (D2AV87) (Streptosporangium roseum DSM 43021) (protein)
chain: MRTKRVFHAVDSHTEGMPTRVITGGVGVIPGSTMAERREHFLAEMDHVRTLLMYEPRGHSAMSGAILQPPTRPDADYGVLYIEVSGCLPMCGHGTIGVATVLVETGMVEVVEPVTTIRLDTPAGLVVAEVRVEDGAATAVTITNVPSFSAGLDRTVKVPGIGEVTYDLAYGGNFYAILPIESVGLPFDRAHKQQILDAGLAIMDAINEQDEPVHPLDAGIRGCHHVQFTAPGSDARHSRHAMAIHPGWFDRSPCGTGTSARMAQLHARGELPLDTDFVNESFIGTRFVGRLVEETEVTDLPAVVPTITGRAWVTGTAQYFLDPRDPFPEGFLL
Km (purified protein [1]): 7.8 ± 1 mM | kcat (purified protein [1]): 14 ± 0.8 s⁻¹

B2: Shew_2363 (A3QFI1) (Shewanella loihica PV-4) (protein)
chain: MLKGTFFCVDAHTCGNPVRLVTSGHPDLKGRTMSEKRQDFLAQYDWIRKALMFEPRGHDMMSGAFLYPPCSDNADAAILFIETSGCLPMCGHGTIGTITAALESGLLTPKMPGQLTIDVPAGQIKVQYQQTGAKVDWVKIFNVPAYLAHKDVVLDIPGLGPLKIDVSYGGNYYAIVDPQANFPGLRHWSAGDILRWSPIVREVAHRELNCVHPDDPTVNGVSHVLWTGDTISEGSNGANAVFYGDKAIDRSPCGTGTSARLAQLYSRGELKVGDEYTHESIIGSQFVGRIEAATKVGAFDAIMPSIKGWARITGHNAITVDDNDPYAFGFQVV
Km (purified protein [2]): 12 ± 3 mM | kcat (purified protein [2]): 50 ± 6 s⁻¹

B3: Pden_4859 (A1BBM5) (Paracoccus denitrificans PD1222) (protein)
chain: MTQYIFPCIDGHTCGNPVRLVAGGAPRLEGATMLEKRAHFLREFDWIRTGLMFEPRGHDMMSGAILYPPTRGDCDVAVLYIETSGCLPMCGHGTIGTITMGIENGLIVPRTPGRLSIETPAGKVDIEYRQEGRHVEEVRLTNVPGFLYAEGLTAEVEGLGEIVVDVAYGGNFYAIVEPQKNFRDMADHTAGELIGWSLTLRAALNQKYEFTHPEHPQINGLSHIQWTGAPTVPGAHARNAVFYGDKAIDRSPCGTGTSARMAQLAARGRLGVGDEFWHESIIGSIFKGRIEAAATVAGRDAIIPSIAGWARQTGLNTIFIDAERDPFAHGFVVK
Km (purified protein [3]): 25 ± 5 mM | kcat (purified protein [3]): 16 ± 2 s⁻¹

B4: Atu0398 (A9CKB4) (Agrobacterium fabrum str. C58) (protein)
chain: MRWKRTLQLLDVHCEGEIGRVVTGGAPKIPGNTVAEQLHWMNTDPQGEALRRFLTLEPRGTPMGSVDLLLPPKHPDAHAAFVILQPDQAHASSGSNSICATTALLESGMVEMQEPETVIILETAAGLVKATATCRDGRCEKVKLTMVPSFVHELDVSIDTPEWGRVTMDISYGGIFYALVDVRQIGLTIEKANAAKLVAAGMTLKDLVNREMTVVHPEIPAISGVAYVMFRDVDADGSIRTCTTMWPGRADRSPCGTGNSANLATLYARGKVKVGDEYKSRSIIGSEFDVGLSAVTEVAGRPAVIPTIAGRGFTFGLHQVGLDPFDPLGDGFAMTDVWGPEAGNI
Km (purified protein [4]): 4.6 ± 2 mM | kcat (purified protein [4]): 0.86 ± 0.1 s⁻¹

B5: Atu4684 (A9CH01) (Agrobacterium fabrum str. C58) (protein)
chain: MRSIKTVHVISAHAEGEVGDVIVGGVKPPPGETIWEQSRFIARDETLRNFVLNEPRGGVFRHVNLLVPPKHPDADAAFIIMEPEDTPPMSGSNSICVSTVLLDGGIVPMQEPETHMLLEAPGGLVKVRAECRNGKAERIFVQNLPSFAAKLDAELEVEGLGKLKVDTAYGGDSFVIVDAEAMGFSLKPEEAHEIARLGVRITNAANKALGFDHPENPDWRHFSFCLFAGKVERTAEGLRAGAAVAIQPGKVDRSPTGTALSARMAVLHARGEMKEGETLTAVSLIGSTFTGRILGTTTVGDRPAILPEISGRGWITGIHQHMLDPSDPWPEGYRLTDTWGAR
Km (purified protein [5]): 4.2 ± 0.8 mM | kcat (purified protein [5]): 27 ± 1 s⁻¹

B6: PFL_1416 (Q4KGT8) (Pseudomonas protegens Pf-5) (protein)
chain: MSEYITLSLDEVCALSYQVLTRHGLSDAHARAIAEVITQGQRDECHSHGVYRLLGCVRSVREGRIDPRAEPSLRHVSPGVLEVDAHYGYSLLGFHTGLPILAEKARSQGIAAMVIKRCFHFSALWPEVEAIADYGLVGMAMNPSHSWVAPAGGRQPVFGTNPLAFAWPRPGGQPFVFDFATSAIARGDIELHARQGKPIPEHWAIDADGQPTTDAKAALQGAMQTFGGHKGSALAAMIELLAGALIGDLTSAESMAFDGGVGATPCHGELVLAFDPRVFLGEGYEQGLERAEGLFAAIARQGARLPSQRRFAARARSLEHGVQIPRGLLEDIRGLL
Km (purified protein [6]): 1.1 ± 0.2 mM | kcat (purified protein [6]): 20 ± 0.8 s⁻¹

B7: SIAM614_28492 (A0NXQ7) (Roseibium aggregatum IAM 12614) (protein)
chain: MRVIDSHTAGEPTRVVLDGGPDLGSGTLAERAARLEAEHLDFCASVVLEPRGHDAIIGALLVPPSDPACAAGVIYFNNLQNLGMCGHATIGLGVTLAHLGRIRPGRHRFETPVGVVEIDLIDANTVSVVNIESYRLAKDVTVEVEGVGPVTGDVAWGGNWFFLVKNSPIALTGANIRPLTDLTLKIRTALEKAGVTGKDGAWIDHIELFGPAEDPAAQSRNFVLCPGGAYDRSPCGTGCSAKLACLAADGALAPGQDYLQESVIGSTYKISYQPGPGGGVIPTITGQAFVTSDATLIFNPADPYRSGIRL
Km (purified protein [7]): 3.2 ± 0.5 mM | kcat (purified protein [7]): 55 ± 3 s⁻¹

B8: SM_b20270 (Q92WR9) (Sinorhizobium meliloti 1021) (protein)
chain: MRSTKTIHVISAHAEGEVGDVIVGGVAPPPGDTIWEQSRWIAREQTLRNFVLNEPRGGVFRHVNLLVPPKHPDADAAFIIMEPEDTPPMSGSNSICVSTVLLDSGILPMKEPVTEITLEAPGGLVRVRAECRDGKAERIFVENLPSFAERLDAKLEVEGLGTLTVDTAYGGDSFVIVDAAAMGFALKPDEAHDIARLGVRITNAANAKLGFHHPENPDWRHFSFCLFAGPVERTAEGLRAGAAVAIQPGKVDRSPTGTALSARMAVLHARGQMGLSDRLTAVSLIGSTFSGRILGTTEVGGRPAVLPEISGRAWITGTHQHMLDPSDPWPEGYRLTDTWGAR
Km (purified protein [8]): 3.8 ± 0.4 mM | kcat (purified protein [8]): 7.9 ± 0.2 s⁻¹

B9: SIAM614_28502 (A0NXQ9) (Roseibium aggregatum IAM 12614) (protein)
chain: MRSTKTIHVISCHAEGEVGDVIVGGVAPPPGETLWEQRSFIARDQTLRNFVLNEPRGGVFRHVNLLVPPRHPEADAAFIIMEPEDTPPMSGSNSICVSTVLLDGGIVPMIEPITEMVLEAPGGLVRVKAECRNGKAERIFVQNVTSFADKLSVPLDVEGIGTLTVDTAYGGDSFVVVDAEALGFAIVEDEAKDIARLGVRITNAANEQLGFSHPENPDWNHISFCAFCGPLSQTPTGLTGRSAVAIQPGKVDRSPTGTAVSARMALMAARGQMTIGDTFEAVSIIGSSFTGRIVSQQMAGDRPGIVPEISGRGWITGIHQHMLDPSDPWPGGYKLSDTWGA
Km (purified protein [8]): 7.8 ± 1 mM | kcat (purified protein [8]): 15 ± 0.9 s⁻¹

B10: Bamb_3769 (Q0B950) (Burkholderia ambifaria AMMD) (protein)
chain: MKISRSLSTVEVHTGGEAFRIVTSGLPRLPGDTIVQRRAWLKENADEIRRALMFEPRGHADMYGGYLTEPVSPTADFGVIFLHNEGYSDHCGHGVIALSTAAVELGWVQRTVPETRVGIDAPCGFIEAFVQWDGEHAGPVRFVNVPSFIWRRDVSVDTPSFGTVTGDIAYGGAFYFYVDGAPFDLPVREAAVEKLIRFGAEVKAAANAKYPVVHPEIPEINHIYGTIIANAPRHPGSTQANCCVFADREVDRSPTGSGTGGRVAQLYQRGVLAAGDTLVNESIVGTVFKGRVLRETMVGDIPAVIPEVEGSAHICGFANWIVDERDPLTYGFLVR
Km (purified protein [9]): 13 ± 3 mM | kcat (purified protein [9]): 43 ± 4 s⁻¹

B11: Avi_7022 (B9K4G4) (Allorhizobium ampelinum S4) (protein)
chain: MRTNKVIHVIGVHAEGEVGDVIVGGVSPPPGDTLWEQSRFIASDETLRNFVLNEPRGGVFRHVNLLVPPKDPRAQMGFIIMEPADTPPMSGSNSICVSTAILDSGIISMQEPLTHMVLEAPGGVIEVTAECANGKAERINVLNVASFVTRLAAALEVEGLGTLTVDTAYGGDSFVIVDAIGLGFSLKPDEARELAELGMKITAAANEQLGFVHPCNADWNHISFCQMTTPITRENGILTGKSAVAIRPGKIDRSPTGTGCSARLAVMHARGEIGIGETYIGRSIIDSEFKCHIDSLTEIGGLSAIRPVISGRAWITGVSQLMLDPTDPWPSGYQLSDTWPAI
Km (purified protein [10]): 15 ± 3 mM | kcat (purified protein [10]): 4.3 ± 0.4 s⁻¹

B12: Pden_1185 (A1B196) (Paracoccus denitrificans PD1222) (protein)
chain: MARKSSAPQFLSYGDATGRLSWRDAVEALRQGHTLPQAQIRDVFLGPPTGTMMSRSAWIEGLGYGAKTFTVFDGNAARGLPTVQGAMLVFDKDDGRLQAIVDSPLVTEFKTAADSVLGASLLARPDSRHLLIVGAGTVAASLVRAYTAVLPGIERVSVWARRPQQAQDLIEGLDGIEADLAAVSDLPAAVGQADIVSSATMARQPVILGAWVRPGTHVDLIGAFKADMREADDALMARAALFVDSRETTLGHIGELMLPIASGAITAESVLGDLYDLVRPGARRRQSEDEITVFKNGGGAHLDLMIASYIARVMAG
Km (purified protein [6]): 3.1 ± 0.7 mM | kcat (purified protein [6]): 260 ± 20 s⁻¹

B13: RSP_0854 (Q3IZJ8) (Cereibacter sphaeroides 2.4.1) (protein)
chain: MSIEIIGPEAEAHLSWDGLTTALTQGHKLPRAEVADIFLYRGKDTVLSRAAWIDGLGQLVKTATIFPGNGAAGKPTVNGAVTLYSDRDGTLEALVDFHLVTKWKTAGDSLLAAKRLARRDSREILLVGAGNVARSMIEAYGSHFPDARFTVWNRSADKARAMEGPQVRATEDLEAAVRAADIICTATMSQEPVVKGEWLKPGTHLDLIGAYRPDMREVDDEALRRATVFVDSRKTTIGHIGEIQDPLDRGILTEADIRADYYDLASGLYARRSDEEITLAKNGGGAHLDLMTASYIAAMWRQR
Km (purified protein [6]): 0.43 ± 0.09 mM | kcat (purified protein [6]): 66 ± 4 s⁻¹
